The values below come from the nanobody polyreactivity screen of Harvey et al. (2022).

The data set can be described thus: yeast display, Sf9 membrane polyspecificity reagent, FACS + sequencing; frameworks hold sequencing errors. Summed up:
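Galactose induction of a Saccharomyces cerevisiae BJ5465 synthetic nanobody display library ran 36–48 hours. The cells were then stained for 1 hour at 4 °C with 10% biotinylated, detergent-solubilized Sf9 membrane reagent, pulled down on streptavidin microbeads and FACS-sorted into low and high (top ~1%) gates on expression and reagent-binding fluorescence. Labels for polyreactivity follow the gate of origin.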
On to “QVQLVESGVGLVQAGGSLRLSCAASGRTFWSYAMGLYRQAPGKERELVAAISRGGSRTYYADSVKGRFTISRDNAKNTVYLQMNSLKPEDTAVYYCAADPTASGHFLGQVDYWGQGTQVTVSS”, for which the “polyreactivity (PSR sort gate)” value is “high polyreactivity”. The result for “QVQLVESGGGLVQAGGSLRLSCAASGRTLGPNAMGWYRQAPGKERELVAGITGRGGITYYTDSEKGRFTISRDNAKNTVYLQMNSLKPEDTAVYYCAARRYRFAGDYRMYYWGQGTQVTVSS” reads “high polyreactivity”.

Take “QVQLVESGGGLVQAGGSLRLSCAASGSTFNSYARGWYRQAPGTERELVAAITSSVGSTYYADSVKGRFTISRDNAKNTVYLQMNSLKPEDTAVYYCDRDYFNREAFDYWGQGTQVTVSS”: the “polyreactivity (PSR sort gate)” value is listed as “low polyreactivity”. The result for “QVQLVESGGGLVQAGGSLRLSCAASGRIFDYYAMGWYRQAPGKERELVATINFSDGSTYYADSVKGRFTISRDNAKNTVYLQMNSLKPEDTAGYYCAAAGWEPYDSLDMNYWGQGTQVTVSS” reads “low polyreactivity”; that for “QVQLVESGGGLVQEGGSLRLSCAASGSIFYRYTMGWYRPAPGKERELVAAISSRGGSTYYADSVKGRFTISRDNAKNTVYLQMNCLKPEDTAVYYCAARYYRNPVFVIMDYWGQGTQVTVSS”, “high polyreactivity”.

With “QVQLVESGGGLVQAGGSLRIICAASGSTFTWNDMRWYRQAPGKERELVAGISLSAGSTYYADSVKGRFTISRDNAKNTDYLQMKSLKPEHTAVYYCNADPGGPDTYEEHDYWGQGTQVTVSS”, the “polyreactivity (PSR sort gate)” value was “low polyreactivity”. Take “QVQLVESGGGLVQAGGSLRLSCAASGSTFKRYAMGWSRQAPGKERECVAGITWRGGRTYYADSVKGRFKISRDIAKNTVYLQMNSLKPEDTSVYYCAATFYTSSHLAGYYWGQGTQVTVSS”: the “polyreactivity (PSR sort gate)” value is recorded as “high polyreactivity”. The result for “QVQLVESGGGLVQAGGSLRLSCAASGGIFDNYAMGWYRQAPGKEREFVAVISSGGTTNYADSVKGRFTISRVNAKNTVYLQMNSLKPEDTAVYYCAADYDYRQGYDSVHLDYWGQGTQVTVSS” reads “low polyreactivity”; that for “QVQIVESGGGLVQAGGSLRLSCAASGRTLDSNAIGWYRKATRKERVLVAAISSAGSTNYADSVKGRFTISRDNAKNTVYLQMNSLKPEDTAVYYCAADLIGSHDYSGQGTQVTVSS”, “low polyreactivity”. Next, “QVQLVDSGGGLVKAGGSLRLSCAASGSTFDTNVMGWYRPAPGKERELVAAIDVSGGSTYYADSVKGRFTISRDNAKNYVYLQMYSLKPEDTAVFYSAAEDGLYGMDYWGQGSQVTVSS”: “low polyreactivity”. The result for “QFQLVESGGGLVQAGGRLRLSCAASGSTLRRYAMGWYRQAPGKERELVAAITYRSGSTYYADSVKGRFTISRDNAKNTVYLEMNSLKPVDTAVYYCAKVGYVSKYWFAGDYWGQGTQVTVSS” reads “high polyreactivity”.

“QVQLVESGGGLVQAGGSLRLSCAASGFIFGGYAMGWYRQAPGNERDLVAAITSSGGDTYYADSVKGRFTISRDNAKNTVYLQMNSLKPEDTAVYYCAKRARRIGDVNMGSWGQGTQVTVSS”: the “polyreactivity (PSR sort gate)” value is recorded as “low polyreactivity”. Next, “QVQLVESGGGLVHAVGSLRLSCAASGRTFISYAMGWYRQAPGKERELVAAISKYGGRTYYADSVKGRFTISRDNAKNTVYLQKISLKPEDTAVYYCAAVKTYLDYSSTSYDYWGQGTQVTVSS”: “high polyreactivity”; “QVQLVESGGGLVQAGGSLRLSCAASGRTFANNVMGWYRQAPGKEREFVAAISRSGGITYYADSVKGRFTISRDNAKNTVYLQMNSLKPEDTAVYYCNAEWPFIYRLYRVQHGNDYWGQGTQVTVSS”: “low polyreactivity”; “QVQLVESGGGLVQAGGSLRLSCAASGRTFWGYAMGWYRQAPGKERELVAAISWSGTSTYYADSVKGRFTISRDNAKNTVYLQMNSLKPEDTAVYYCARAVNDWRRKYNYWGQGTQVTVSS”: “high polyreactivity”. As to “QVQLVESGGGLVQAGASLRLICDASGSIFPYNAMGWYRQAPGKERELVAVITSSGGSTYYADSVKGRFTISRDNAKNTVYLQLNSLKPEDTAVYYCAVLNHRVDSVLTRYYYWGQGTQVTVSS”, the “polyreactivity (PSR sort gate)” value is given as “low polyreactivity”. Next, “QVQLVESGGGLVQAGGSLRLSCAASGSTFDPNAMGWYRQARGKERELVAAISYTGGRTYYADSVKGRFTISRDNAKNTVYLQMNSLKPEDTAVYYCAVLVVGSTTQDEPYFSGVEHDYWGQGTQVTVSS”: “low polyreactivity”; “QVQLVESGGGLVQAGGSLRLSCAASGSTFYSNAMGWYRQAPGKERELVDSISWSSGSTYYADSVKGRFTISRDNAKNTVYLQMNSLKPEDTAVYYCATDAGGPYRFGYWGQGTQVTVSS”: “low polyreactivity”. Next, “QLQLVESGGGLVQAGGSLRLSCAASGRTFRYNAMGWYRQAPGKERELVASISWRGGSTYYADSVKGRFTISRDNAKNTVYLQMNSLKPEDTAVYYCVADAAHSEYDYWGQGTQVTVSS”: “high polyreactivity”. Next, “QVQLVESGGGLVQAGGSLRLSCAASGITIYGYAMGWYRQAPGKERELVAAITRSGGRTYYADSVKGRFTISRDNAKNTVYLQMNSLKPEDTAVYYCAKDMNDETAPYYYWGQGTQVTVSS”: “high polyreactivity”; “QVQLVESGGGLVQAGGSLRLSCAASGSIFRRYAIGWYRQAPGKERELVAAISGRGGSTYYADSVKGRFTISRDNAKNTVYLQMNSLKPEDTAVYYCNADRYYSHYSYYYWGQGTQVTVSS”: “high polyreactivity”. As to “QVQLVESGGGLVQAGGSLRLSCAASGFTFYKYAMGWYRQAPGKERELVAAISYRGGRTYYADSVKGRFTISRDNAKNTVYLQMNSLKPEDTAVYYCAARGYVWNIGRYYWGQGTEVTVSS”, the “polyreactivity (PSR sort gate)” value was “high polyreactivity”.

With “QVQLVESGGGLVQAGGSLRLSCAASGLTFDVYTMVWYRQAPGKERELVATISETYYADSVKGRFTISRDNAKNTVYLQMNSLKPEDTAVYYCAANGFKAQYRDIVYDYGYWGQGTQVTVSS”, the “polyreactivity (PSR sort gate)” value is listed as “low polyreactivity”. The result for “QVQLVESGGGLVQAGGSLRISCAASGLIFAIYAMGWYRQAPGKERELVAAIRWSGASTYADSVKGRFTISRDNAKNTVYLQMNSLKAEDTAVYYCAADDLLDYDNWGQGTQVTVSS” reads “low polyreactivity”; that for “QVQLVESGGGLVQAGGSLRLSCAASGIIFRLYGMGWYRPAPGKAREFVATITWRGGRTNYADSVKGRFTISRDNAKNTVYLLMNSRKPEDTADYYCAKDVRYARSNEYDSWGQGTQVTVSS”, “low polyreactivity”; that for “QVQLVESGGGLVQAGGSLRLSCAASGRTFAFYTMGWYIQAPGKERELVAAITRTGSTSYADSVKGRFTISRDNAKNTVYLQMNSLKPEDTAVYFCASVGYPYTLWHQMDYWGQGTQVTVSS”, “low polyreactivity”. Take “QVQLVESGGGLVQAGGSLRLSCAASGATLVWNTMGWCRQAPGTERELVAGITSGGSTKYADSVKGRFTISRDNAKNTVYLQMKRLKPEDTAVYYCAADCYGQAIFIYDYWGQGTQVTVSS”: the “polyreactivity (PSR sort gate)” value is recorded as “low polyreactivity”. Next, “QVQLVESGGGLVQAGGSLRLSCAASGSIFLRNAMGWYRQAPGKERELVAAITNSSGSTYYADSVKGRFTISRDNAKNTVYLQMNSLKPEDTAVYYCAATSRSSRRYYYWGQGTQVTVSS”: “high polyreactivity”; “QVQLVESGGGLVQAGGGLRLSCSASGYIFGYTAMGWYRQAPGKERELVAAISYSGGSTYYADSVKGRFTISRDNAKNTVYLQMNSLKPVDTAVYYCAAYRKGTWPGYLGVGYDYWGQGTQVTVSS”: “high polyreactivity”. The result for “QVQLVESGGFLVQAGGSLRLSCAASGSTSYNYVMGWYRQAPRKERELVAGITWSDDITYYADSVKGRFSISRDNAKNTVYLQMNSLKPEDTAVYYCAAEDGPLYWRFPDEMDYWGQGTQVTVSS” reads “low polyreactivity”. The result for “QVQLVESGGGLVQAGGSPRLSCAASGSTFVPYDMGWYRQAPAKERELVAAISRGGSTYYADSVKGRFTISRDNAKNTFYLQMNSLKPEDTAVYYCDARARICTVDYWVQGTQVTVSS” reads “high polyreactivity”. On to “QVQLVESGGGLVQAGGRHRLSCAASGSTFSYNAMGWYRQAPGKERELVATISNTDSTNYADSVKGRFTISRDNAKNTVYLQMNSLKPEDTAVYYCAVVSARFDYEYWGQGTQVTVSS”, for which the “polyreactivity (PSR sort gate)” value is given as “low polyreactivity”. Next, “QVQLVESGGGLVQAGGSLRLSCAASGSIFVPYAMGWYRQAPGKERELVAAISSRGGRTYYADSVKGRFTISRDNAKNTVYLQMNSLKPEDNAVYYCNKTAGSHIPRLEYWGQGTQVTVSS”: “low polyreactivity”; “QVQLVESCGGLVQAGGSLRLSCAASGRTFGYYAMGWYRQAPGNERELVAAISRGGRTNYADSVKGRFTISRDNAKNTVYLQMNSLKPEDTAVYYCAKSGTIPRYTASYSLLDYWGPGTQVTVSS”: “low polyreactivity”; “QVQLVESGGGLVQAGGSLRLSCAASGFTFGTNAMGWDRQAPGKERELVAAISGSGGSTYYADSVKGRFTISRDNAMNTVYLQMNSLKPEDTAVYYCNKGRPRKVYSEGFGYWGQGTQVTVSS”: “high polyreactivity”. Next, “QVQLVESGGGLVQAGGRLRLSCAASGFTLDRYAMGWYRQAPGKERELVAAITQSGVSTYYADSVKGLFTISRDNAKNTVYLQKNSLKPEETAVYYCNALLRRTYYRYTWGYGYWGQGTQVTVSS”: “high polyreactivity”; “QVQLVESGGGLVQAGGTLRLSCAASGSTFPGYAIGSNRQAPGKERELVAAISVSGDRTYYADSVKGRFTISRDNAKNTVYLQMNSLKPEDTAVYYCAVRTRYRSYGVWVGNYSWGQGTQVTVSS”: “high polyreactivity”.

For “QVQLVESGGGLVQAGGSLRLSCAASGSIFYHYAMGWYRQAPGKERELVAAISDRGTSTYYADSVKGRFTISRDNAKNTVYLQMNSLKPEDTAVYYCAAEGSLNSFYYSYYYWGQGTQVTVSS”, the “polyreactivity (PSR sort gate)” value is “high polyreactivity”. With “QVQREESGGGLVQAGGSLRLSCPASGITFWGYVMGWYRQAPGKERELVAAISSSGGRTYYADSVKGRFTISRDNAKNTVYLQMNSMKPEDTAVYYCAARFLYANGDSVDYDYWGQGTQVTVSS”, the “polyreactivity (PSR sort gate)” value is reported as “high polyreactivity”. The result for “QVQLVESGGGLVQAGGSLRLSCAASGFTFKKNAMGWYRQAPGTERELVAAISRSGGITYYADSVKGRFTISRDNAKNTVYLQMNSLKPEDTAVYYCATQTYRTPGYYYWGEGTQVTVSS” reads “high polyreactivity”.
